# Ends that are not written are not given here. fluorescein = fluorescein conjugated to the primary amine of the Lys side chain through an MHS ester
# B1: fatty acid-conjugated faTraE peptide (peptide)
# peptide: CHLDAHWK(fluorescein)G
# modifications: not fully specified (residue 1)
# notes: also called fatty acid-modified peptide; HOOC-(CH2)15-S-S-peptide
# Molecular target: defatted HSA (human serum albumin) (human, UniProt P02768 25-609)
# Test: native acrylamide gel shift, fluorescein-labeled peptide (25 pmol) with defatted HSA (100 pmol)
binder,measurement,value
B1,binding result,binds
